From US20060210473A1

Key:
human endoglin (human) [1] = biological target: human endoglin (human) (UniProt P17813); experiment: indirect immunofluorescence, FACS on HUVEC, 10 µg/ml
human endoglin (human) [2] = biological target: human endoglin (human) (UniProt P17813); experiment: FACS on HUVEC; one grade for both antibodies; ++++ is CFI >100
human endoglin (human) [3] = biological target: human endoglin (human) (UniProt P17813); experiment: FACS on ECV-304; one grade for both antibodies; ++ is CFI 25-50
human endoglin (human) [4] = biological target: human endoglin (human) (UniProt P17813); experiment: FACS competition on HUVEC; unlabelled TEC-11 against biotinylated TEC-4 (competitor), ratio 1:1
human endoglin (human) [5] = biological target: human endoglin (human) (UniProt P17813); experiment: FACS on HT-1080 and SAOS-2 sarcoma lines; one grade for both antibodies; + is CFI 5-25
human endoglin (human) [6] = biological target: human endoglin (human) (UniProt P17813); experiment: FACS on MDA-MB-231 and SKBR3 breast tumor lines; one grade for both antibodies; + is CFI 5-25
human endoglin (human) [7] = biological target: human endoglin (human) (UniProt P17813); experiment: FACS on U937; one grade for both antibodies; + is CFI 5-25
human endoglin (human) [8] = biological target: human endoglin (human) (UniProt P17813); experiment: FACS, 20 µg/ml TEC-11 on the sorted endoglin^hi fraction of postconfluent HUVEC; mean of 2 studies, SD 3.8
human endoglin (human) [9] = biological target: human endoglin (human) (UniProt P17813); experiment: FACS on A375M and T8 melanoma lines; one grade for both antibodies; + is CFI 5-25
human endoglin (human) [10] = biological target: human endoglin (human) (UniProt P17813); experiment: FACS on HUVEC, concentration giving half-maximal fluorescence
human endoglin (human) [11] = biological target: human endoglin (human) (UniProt P17813); experiment: FACS on L-endoglin fibroblast transfectant; one grade for both antibodies; +++ is CFI 50-100
human endoglin (human) [12] = biological target: human endoglin (human) (UniProt P17813); experiment: FACS, 20 µg/ml TEC-11 on the sorted endoglin^lo fraction of postconfluent HUVEC; mean of 2 studies, SD 2.4
human endoglin (human) [13] = biological target: human endoglin (human) (UniProt P17813); experiment: cell-based or functional assay
human endoglin (human) [14] = biological target: human endoglin (human) (UniProt P17813); experiment: FACS competition on HUVEC; unlabelled TEC-4 against biotinylated TEC-11 (competitor), ratio TEC-11:TEC-4 1:100
human endoglin (human) [15] = biological target: human endoglin (human) (UniProt P17813); experiment: FACS competition on HUVEC; unlabelled TEC-4 against biotinylated TEC-11 (competitor), ratio 1:1

Row | specific mean fluorescence intensity (MFI) (human endoglin (human) [1]) | corrected fluorescence intensity (CFI) (human endoglin (human) [2]) | corrected fluorescence intensity (CFI) (human endoglin (human) [3]) | percent blocking (human endoglin (human) [4]) | corrected fluorescence intensity (CFI) (human endoglin (human) [5]) | corrected fluorescence intensity (CFI) (human endoglin (human) [6]) | corrected fluorescence intensity (CFI) (human endoglin (human) [7]) | MFI (human endoglin (human) [8]) | corrected fluorescence intensity (CFI) (human endoglin (human) [9]) | EC50 (human endoglin (human) [10]) | corrected fluorescence intensity (CFI) (human endoglin (human) [11]) | MFI (human endoglin (human) [12]) | complement fixation, relative to TEC-4 (human endoglin (human) [13]) | complement-mediated lysis of HUVEC (trypan blue) (human endoglin (human) [13]) | percent blocking (human endoglin (human) [14]) | percent blocking (human endoglin (human) [15]) | Substance
1 | 200 MFI | > 100 cfi | 25 to 50 cfi | 51% | 5 to 25 cfi | 5 to 25 cfi | 5 to 25 cfi | 270 MFI | 5 to 25 cfi | 0.4 µg/mL | 50 to 100 cfi | 61.6 MFI | 100 fold | 50 % lysis |  |  | TEC-11 (antibody)
2 | 200 MFI | > 100 cfi | 25 to 50 cfi |  | 5 to 25 cfi | 5 to 25 cfi | 5 to 25 cfi |  | 5 to 25 cfi | 4 µg/mL | 50 to 100 cfi |  |  | 48 % lysis | 20% | 1% | TEC-4 (antibody)
